Data: patent publication US20220040319A1, “METHODS OF TREATING OCULAR CANCER USING ANTI-MET ANTIBODIES AND BISPECIFIC ANTIGEN BINDING MOLECULES THAT BIND MET” (Regeneron Pharmaceuticals, Inc., priority 2019, published 2022)

What was measured:
[1] = target: human MET (exon14 skip mutation) on NCI-H596 cells (human) (UniProt P08581); experiment: cell-based or functional assay
[2] = target: MET (c-Met, hepatocyte growth factor receptor) on cells (human) (UniProt P08581)
[3] = target: MET (c-Met, hepatocyte growth factor receptor) on cells (human) (UniProt P08581); remark: listed apart in the source

Chain of MET (c-Met, hepatocyte growth factor receptor) on cells (human) (P08581 25-1390 limits assumed, form in doubt): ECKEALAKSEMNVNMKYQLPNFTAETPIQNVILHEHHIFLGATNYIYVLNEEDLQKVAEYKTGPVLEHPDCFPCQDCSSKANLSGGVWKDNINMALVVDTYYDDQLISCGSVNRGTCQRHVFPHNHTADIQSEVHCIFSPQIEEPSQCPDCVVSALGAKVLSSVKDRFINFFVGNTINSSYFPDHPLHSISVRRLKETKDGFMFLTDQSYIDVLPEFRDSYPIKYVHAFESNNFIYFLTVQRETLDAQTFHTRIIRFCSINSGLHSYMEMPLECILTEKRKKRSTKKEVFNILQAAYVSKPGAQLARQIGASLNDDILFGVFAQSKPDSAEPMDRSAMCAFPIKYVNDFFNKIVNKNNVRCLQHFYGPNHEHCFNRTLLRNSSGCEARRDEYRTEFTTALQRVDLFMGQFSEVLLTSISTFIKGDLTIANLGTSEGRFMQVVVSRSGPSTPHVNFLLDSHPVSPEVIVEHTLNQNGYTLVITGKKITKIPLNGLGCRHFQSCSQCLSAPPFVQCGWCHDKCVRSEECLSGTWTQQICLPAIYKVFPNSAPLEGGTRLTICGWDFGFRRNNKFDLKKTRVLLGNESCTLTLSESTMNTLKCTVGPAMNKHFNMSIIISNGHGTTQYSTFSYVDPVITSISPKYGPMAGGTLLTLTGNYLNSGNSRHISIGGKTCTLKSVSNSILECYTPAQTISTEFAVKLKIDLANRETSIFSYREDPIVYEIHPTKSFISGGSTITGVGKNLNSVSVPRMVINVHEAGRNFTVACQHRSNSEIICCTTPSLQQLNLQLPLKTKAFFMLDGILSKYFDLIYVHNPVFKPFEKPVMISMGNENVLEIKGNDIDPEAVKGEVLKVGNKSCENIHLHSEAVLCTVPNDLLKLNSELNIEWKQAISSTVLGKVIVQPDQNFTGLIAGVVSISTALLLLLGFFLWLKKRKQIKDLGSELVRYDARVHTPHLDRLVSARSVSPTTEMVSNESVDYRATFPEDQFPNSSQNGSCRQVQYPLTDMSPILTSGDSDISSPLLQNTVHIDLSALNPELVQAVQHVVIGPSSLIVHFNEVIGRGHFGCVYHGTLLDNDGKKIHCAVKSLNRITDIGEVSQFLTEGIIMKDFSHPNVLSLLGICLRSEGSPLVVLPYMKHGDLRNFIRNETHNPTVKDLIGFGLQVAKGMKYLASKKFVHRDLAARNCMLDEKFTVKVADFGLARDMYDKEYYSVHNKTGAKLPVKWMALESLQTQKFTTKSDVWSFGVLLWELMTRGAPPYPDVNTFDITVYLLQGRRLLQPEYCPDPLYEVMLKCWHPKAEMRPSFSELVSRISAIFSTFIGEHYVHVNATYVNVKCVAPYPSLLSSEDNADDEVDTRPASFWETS
Chain of human MET (exon14 skip mutation) on NCI-H596 cells (human) (P08581 25-1390, change not shown): as the sequence (P08581 25-1390 limits assumed, form in doubt) above

| Substance | Relative Cell Growth (n = 3), NCI-H596 cells in soft agar, 100 ng/mL HGF, two weeks (normalized to control) [1] | IC50 (read off the curve); blocking of HGF-dependent SRE-driven luciferase signal in HEK293T cells [2] | IC50 (read off the curve); blocking of HGF-induced SRE-luciferase signal in HEK293/SRE-Luc cells [3] |
| --- | --- | --- | --- |
| hepatocyte growth factor (from UniProt P14210 32-728) (ligand) | 7.88 | – | – |
| monovalent anti-MET antibody (made with the heavy and light chain variable sequences of MetMab) | – | 0.4 nM | 0.06 nM |
